Numbered stars: 1 amine (or outer) side, 2 acyl side, 3 side chain; on linkers, the order of the positions; unused ones are H or OH. Bridge positions count the residues as written; N and C are the ends. Square brackets hold non-standard residues; d marks the D form. Primed or numbered codes have the meaning given here. Ends that are not written are not given here. * marks the point of attachment. Ida = iminodiacetic acid, O=C(CN(CC(=O)[*:3])[*:1])[*:2]; PEG3′ = NH2CH2CH2(OCH2CH2)3CH2CH2CO2H (PEG3 linker); Dip = N[C@H](C(=O)O)C(c1ccccc1)c1ccccc1; β3hP = O=C(O)C[C@@H]1CCCN1; Isovaleryl = CC(C)CC(=O)*; Isobutyryl = CC(C)C(=O)*; Octanoyl = CCCCCCCC(=O)*; Sar = CNCC(=O)O
T1: human ferroportin (SLC40A1) fused in frame with GFP, stably expressed in HEK293 cells (human, UniProt Q9NP59 1-571)
T1 sequence (looked up): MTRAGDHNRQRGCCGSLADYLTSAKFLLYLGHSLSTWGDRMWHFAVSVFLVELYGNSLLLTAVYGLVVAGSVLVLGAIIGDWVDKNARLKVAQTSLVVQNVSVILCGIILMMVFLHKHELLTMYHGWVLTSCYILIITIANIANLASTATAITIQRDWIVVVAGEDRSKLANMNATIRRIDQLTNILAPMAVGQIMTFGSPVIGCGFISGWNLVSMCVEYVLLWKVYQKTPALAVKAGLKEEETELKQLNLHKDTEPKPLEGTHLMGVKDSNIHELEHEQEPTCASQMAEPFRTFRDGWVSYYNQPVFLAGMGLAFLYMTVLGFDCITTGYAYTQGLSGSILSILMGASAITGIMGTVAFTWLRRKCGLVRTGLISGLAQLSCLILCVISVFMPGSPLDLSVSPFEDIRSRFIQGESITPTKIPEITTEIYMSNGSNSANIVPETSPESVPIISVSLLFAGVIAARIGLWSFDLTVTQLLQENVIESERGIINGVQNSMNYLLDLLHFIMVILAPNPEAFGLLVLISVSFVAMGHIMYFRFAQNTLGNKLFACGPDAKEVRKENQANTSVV

T2: human ferroportin (SLC40A1) fused in frame with GFP, stably expressed in HEK293 cells (human, UniProt Q9NP59 1-571)
T2 sequence (looked up): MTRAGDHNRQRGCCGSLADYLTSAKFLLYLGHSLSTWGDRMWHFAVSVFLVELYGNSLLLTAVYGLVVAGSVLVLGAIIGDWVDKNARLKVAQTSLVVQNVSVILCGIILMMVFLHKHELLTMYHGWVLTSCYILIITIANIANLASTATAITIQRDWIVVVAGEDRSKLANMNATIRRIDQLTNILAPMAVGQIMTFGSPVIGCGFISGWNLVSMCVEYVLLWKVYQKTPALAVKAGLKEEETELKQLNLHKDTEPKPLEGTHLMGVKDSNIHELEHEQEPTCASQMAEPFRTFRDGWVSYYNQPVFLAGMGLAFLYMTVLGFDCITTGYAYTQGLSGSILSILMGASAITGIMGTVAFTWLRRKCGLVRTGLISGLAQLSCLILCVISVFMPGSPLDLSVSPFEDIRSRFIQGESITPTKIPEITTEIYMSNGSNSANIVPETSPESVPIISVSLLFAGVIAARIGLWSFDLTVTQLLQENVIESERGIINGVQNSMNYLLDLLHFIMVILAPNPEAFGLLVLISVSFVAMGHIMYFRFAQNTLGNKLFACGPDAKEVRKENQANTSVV

B1: Hy-DTHFPCIIFGPRSKGWAVCYW-NH2 (peptide)
peptide: H-DTHFPCIIFGPRSKGWAVCYW-NH2
modifications: not fully specified (bridges); printed as Hy-DTHFPCIIFGPRSKGWAVCYW-NH2; cysteine pairing not given here
B2: Hy-DTHFPCIIFGPRSKGWVAC-NH2 (peptide)
peptide: H-DTHFPCIIFGPRSKGWVAC-NH2
modifications: not fully specified (bridges); printed as Hy-DTHFPCIIFGPRSKGWVAC-NH2; cysteine pairing not given here
B3: Hy-DTHFPCIIFGPRSKGWVACY-NH2 (peptide)
peptide: H-DTHFPCIIFGPRSKGWVACY-NH2
modifications: not fully specified (bridges); printed as Hy-DTHFPCIIFGPRSKGWVACY-NH2; cysteine pairing not given here
B4: Hy-DTHFPCIIFGPRSRGHVCK-NH2 (peptide)
peptide: H-DTHFPCIIFGPRSRGHVCK-NH2
modifications: not fully specified (bridges); printed as Hy-DTHFPCIIFGPRSRGHVCK-NH2; cysteine pairing not given here
B5: Hy-DTHFPCIIFGPRSKGWNCK-NH2 (peptide)
peptide: H-DTHFPCIIFGPRSKGWNCK-NH2
modifications: not fully specified (bridges); printed as Hy-DTHFPCIIFGPRSKGWNCK-NH2; cysteine pairing not given here
B6: Hy-DTHFPCIIFGGPRSRGWVCK-NH2 (peptide)
peptide: H-DTHFPCIIFGGPRSRGWVCK-NH2
modifications: not fully specified (bridges); printed as Hy-DTHFPCIIFGGPRSRGWVCK-NH2; cysteine pairing not given here
B7: Hy-DTHFPCIIFGGPRSKGWNCK-NH2 (peptide)
peptide: H-DTHFPCIIFGGPRSKGWNCK-NH2
modifications: not fully specified (bridges); printed as Hy-DTHFPCIIFGGPRSKGWNCK-NH2; cysteine pairing not given here
B8: Isobutyric acid-DTHFPIC1IFVC2HRSKGC2YRRC1R-NH2 (peptide)
peptide: Isobutyryl-DTHFPICIFVCHRSKGCYRRCR-NH2
modifications: disulfide 11-17, 7-21
SMILES: CC[C@H](C)[C@@H]1NC(=O)[C@@H](NC(=O)[C@@H](NC(=O)[C@@H]2CCCN2C(=O)[C@H](Cc2ccccc2)NC(=O)[C@H](Cc2c[nH]cn2)NC(=O)[C@@H](NC(=O)[C@H](CC(=O)O)NC(=O)C(C)C)[C@@H](C)O)[C@@H](C)CC)CSSC[C@@H](C(=O)N[C@@H](CCCNC(=N)N)C(N)=O)NC(=O)[C@H](CCCNC(=N)N)NC(=O)[C@H](CCCNC(=N)N)NC(=O)[C@H](Cc2ccc(O)cc2)NC(=O)[C@@H]2CSSC[C@H](NC(=O)[C@H](C(C)C)NC(=O)[C@H](Cc3ccccc3)NC1=O)C(=O)N[C@@H](Cc1c[nH]cn1)C(=O)N[C@@H](CCCNC(=N)N)C(=O)N[C@@H](CO)C(=O)N[C@@H](CCCCN)C(=O)NCC(=O)N2

target: T1, human ferroportin (SLC40A1) fused in …; test: cell-based or functional assay

| Binder | Potency EC50 (nM), ferroportin-GFP internalization/degradation [nM] |
| --- | --- |
| Isovaleryl-DTHFPCIKFEPHSK[Sar]CK-NH2 (not fully specified (bridges); cysteine pairing not given here) [Isovaleric acid-DTHFPCIKFEPHSK-[Sarc]-CK-NH2] | 28 |
| Isovaleryl-DTHFPCIKFKPHSKEWVCE-NH2 (disulfide 6-18 (inferred)) [Isovaleric acid-DTHFPCIKFKPHSKEWVCE-NH2] | 46 |
| Isovaleryl-DTHFPCIKFEPRSKEWVCK-NH2 (disulfide 6-18 (inferred)) [Isovaleric acid-DTHFPCIKFEPRSKEWVCK-NH2] | 20 |
| Isovaleryl-DTHFPCIKFEPRSKLWVCK-NH2 (disulfide 6-18 (inferred)) [Isovaleric acid-DTHFPCIKFEPRSKLWVCK-NH2] | 9 |
| Isovaleryl-DTHFPCIKFEPRSKEWVCK-OH (not fully specified (bridges); cysteine pairing not given here) [Isovaleric acid-DTHFPCIKFEPRSKEWVCK-OH] | 46 |
| B1 | 197 |
| H-DTHFPICIFGPHRSKGWVCM-NH2 (disulfide 7-19 (inferred)) [Hy-DTHFPICIFGPHRSKGWVCM-NH2] | 149 |
| B2 | 281 |
| H-DTHFP[dC]IIFGPRSKGWVA[dC]-NH2 (disulfide 6-19 (inferred)) [Hy-DTHFP-[(D)Cys]-IIFGPRSKGWVA-[(D)Cys]-NH2] | > 10000 |
| B3 | > 10000 |
| B4 | > 1000 |
| B5 | > 1000 |
| H-DTHFPCINFGPRSKGWVCK-NH2 (disulfide 6-18 (inferred)) [Hy-DTHFPCINFGPRSKGWVCK-NH2] | > 1000 |
| H-DTHFPCIDFGPRSKGWVCK-NH2 (disulfide 6-18 (inferred)) [Hy-DTHFPCIDFGPRSKGWVCK-NH2] | > 1000 |
| Isovaleryl-DTHFECIIFGPRSKGWVCK-NH2 (not fully specified (bridges); cysteine pairing not given here) [Isovaleric acid-DTHFECIIFGPRSKGWVCK-NH2] | > 1000 |
| B6 | 520 |
| B7 | 404 |
| H-DTHFPCIIFGGPRSKGWDCK-NH2 (disulfide 6-19 (inferred)) [Hy-DTHFPCIIFGGPRSKGWDCK-NH2] | 679 |
| Isovaleryl-DTHFPCIFEPRSKGTCK-NH2 (disulfide 6-16 (inferred)) [Isovaleric acid-DTHFPCIFEPRSKGTCK-NH2] | 57 |
| Isovaleryl-DTHFPCIIF[PEG3′]C-NH2 (cysteine pairing not given here) [Isovaleric acid-DTHFPCIIF-[PEG3]-C-NH2] | 157 |
| Isovaleryl-DTHAPCIKF[Sar]PRSKGWECK-NH2 (disulfide 6-18 (inferred)) [Isovaleric acid-DTHAPCIKF-[Sarc]-PRSKGWECK-NH2] | > 10000 |
| Isovaleryl-DTHAPCIKFEPRSK[Sar]WECK-NH2 (disulfide 6-18 (inferred)) [Isovaleric acid-DTHAPCIKFEPRSK-[Sarc]-WECK-NH2] | > 10000 |
| Isovaleryl-DTHAPCIKFEPRSKEWECK-NH2 (not fully specified (bridges); cysteine pairing not given here) [Isovaleric acid-DTHAPCIKFEPRSKEWECK-NH2] | > 10000 |
| Isovaleryl-STHAPCIKFEPRSKGWECK-NH2 (disulfide 6-18 (inferred)) [Isovaleric acid-STHAPCIKFEPRSKGWECK-NH2] | > 10000 |
| Isovaleryl-SKHAPCIKFEPRSKGWECK-NH2 (disulfide 6-18 (inferred)) [Isovaleric acid-SKHAPCIKFEPRSKGWECK-NH2] | > 10000 |
| Isovaleryl-DTHFPCIKFEPHSKEWVCK-NH2 (not fully specified (bridges); cysteine pairing not given here) [Isovaleric acid-DTHFPCIKFEPHSKEWVCK-NH2] | 80 |
| Isovaleryl-DTHFGCIKFEPRSKEWVCK-NH2 (not fully specified (bridges); cysteine pairing not given here) [Isovaleric acid-DTHFGCIKFEPRSKEWVCK-NH2] | > 1000 |
| Isovaleryl-DTEFPCIKFEPRSKEWVCK-NH2 (disulfide 6-18 (inferred)) [Isovaleric acid-DTEFPCIKFEPRSKEWVCK-NH2] | > 1000 |
| Isovaleryl-DTHFPCIKFEPRSK(Octanoyl)EWVCK-NH2 (disulfide 6-18 (inferred)) [Isovaleric acid-DTHFPCIKFEPRS-K(octanoic acid)-EWVCK-NH2] | 62 |

target: T2, human ferroportin (SLC40A1) fused in …; test: cell-based or functional assay

| Binder | Potency EC50 [nM] |
| --- | --- |
| [Ida]TH[Dip][β3hP]ICIFGPRSKGWVCM-NH2 (disulfide 7-18 (inferred)) [[Ida]-TH-[Dpa]-[bhPro]-ICIFGPRSKGWVCM-NH2] | 17 |
| B8 | 63 |

From patent US20170313754A1 (PROTAGONIST THERAPEUTICS, published 2017)
